Experimental findings from patent US6607709 (CURATORS OF THE UNIVERSITY OF MISSOURI, dated 2003) are described below.

Positions of bridges follow the written chain, without caps; N, C: chain ends. Non-standard residues stand in square brackets, D forms with d. Re(V)O = rhenium(V) oxo core coordinated by cysteine thiolates and amide nitrogens

Assay [1] addresses T1, α-MSH receptor on B16-F1 murine melanoma cells (murine, UniProt Q01727 1-315). Nature of the assay: cell-based or functional assay.
Assay [2] has as its target T1, α-MSH receptor on B16-F1 murine …. Nature of the assay: competitive receptor binding on B16-F1 murine melanoma cells, displacement of ^125I-[Nle4, D-Phe7]-α-MSH, 4° C., 8 hours. The method, then:
(§1) Quantitative receptor binding assays were carried out following a previously described method (Siegrist W., 1988; Sahm, U. G., 1994). […] The cells were rinsed with PBS, lysed with 1 M NaOH and counted in a 1275 minigamma gamma counter from LKB Wallac.
The bioactivities of APOMSH and the ReMSH complex were assayed by measuring stimulation of melanin production by B16-F1 murine melanoma cells. The $EC50$ values for melanin synthesis by APOMSH and ReMSH were 2.6 ×10^-11 and 5.4 ×10^-10, respectively. […] Receptor binding assays were performed with APOMSH and ReMSH on B16-F1 murine melanoma cells.

The target is the same in assay [3]. Nature of the assay: cell-based or functional assay. This is another data set of the same source.
Assay [4] shares this target. The assay is described as follows: competitive receptor binding on B16-F1 murine melanoma cells. Here is the method: as §1
The ^99mTc- and ^188Re-labeled analogs of ReCCMSH were virtually inert to substitution in 10 mM Cys competition assays, while the ^99mTc- and ^188Re-labeled analogs of ReMSH were readily exchanged under the same assay conditions (Table 2). This increased stability of ReCCMSH probably resulted from the presence of an additional sulfur donor atom and from decreased backbone strain in the molecule due to the increased ring size. […] The ability of the ReCCMSH analog to stimulate melanin production was almost identical to APOMSH (Table 3).

T1 sequence (Q01727 whole entry): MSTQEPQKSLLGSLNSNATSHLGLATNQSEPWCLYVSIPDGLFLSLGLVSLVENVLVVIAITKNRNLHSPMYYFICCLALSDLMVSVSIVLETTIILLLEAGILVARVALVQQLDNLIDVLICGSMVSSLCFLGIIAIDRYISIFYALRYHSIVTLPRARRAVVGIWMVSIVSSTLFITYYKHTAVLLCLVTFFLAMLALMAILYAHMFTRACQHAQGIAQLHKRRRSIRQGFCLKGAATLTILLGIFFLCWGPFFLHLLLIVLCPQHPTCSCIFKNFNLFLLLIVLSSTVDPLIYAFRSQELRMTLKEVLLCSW

B1: Cys^4,10, D-Phe^7-α-MSH4-13 (APOMSH) (peptide)
peptide: Ac-CEH[dF]RWCKPV-NH2
modifications: disulfide 1-7
SMILES: CC(=O)N[C@H]1CSSC[C@@H](C(=O)N[C@@H](CCCCN)C(=O)N2CCC[C@H]2C(=O)N[C@H](C(N)=O)C(C)C)NC(=O)[C@H](Cc2c[nH]c3ccccc23)NC(=O)[C@H](CCCNC(=N)N)NC(=O)[C@@H](Cc2ccccc2)NC(=O)[C@H](Cc2c[nH]cn2)NC(=O)[C@H](CCC(=O)O)NC1=O
notes: Synthetic cyclic α-MSH analog without metal; starting peptide for ReMSH; also called metal-free peptide
As to B1, in assay [1], the “EC50 (M), melanin production by B16-F1 murine melanoma cells” value (shortened to “EC50 (M), melanin production”) stood at 2.6e-11 M. For the same molecule, the affinity in assay [2] corresponds to a Ki of 0.68 nM.

B2: ReMSH (peptide)
peptide: CEHFRWCKPV
modifications: not fully specified; N-terminal acetyl; D-Phe at position 7 (α-MSH numbering); C-terminal amide; cyclized by a Re(V)O core coordinated by the thiolate sulfurs of Cys4 and Cys10 and the amide nitrogens of Trp9 and Cys10
notes: Nonradioactive rhenium complex of APOMSH; also called rhenium α MSH analog ReMSH; ReMSH complex
On to B2, for which the “fold decrease in the ability to stimulate melanin production compared to APOMSH” value in assay [3] is approximately 20 fold. Besides, the “EC50 (M), melanin production” value in assay [1] was 5.4e-10 M. Besides, the “fold decrease in receptor binding affinity compared to APOMSH” value in assay [4] was approximately 100 fold. Further, in assay [2], the Ki (as a rule, a dissociation constant, usually derived from enzyme kinetics or from competition with a known ligand) turned out to be 66 nM.

B3: ReCCMSH (peptide)
peptide: Ac-CCEH[dF]RWCKPV-NH2
modifications: bridge 1-2-8 via Re(V)O; not fully specified; printed as NAc-Cys-Cys-Glu-His-D-Phe-Arg-Trp-Cys-Lys-Pro-Val-NH2; also: Re(V)O complex via thiolates of Cys3, Cys4, Cys10 and amide N of Cys4
notes: Nonradioactive rhenium complex of the APOMSH analog with an additional N-terminal Cys (Cys3); also called ReCCMSH analog
Regarding B3, the “EC50 (M), melanin production” value in assay [1] amounted to 3.5e-11 M. In assay [4], the “fold higher receptor binding affinity than ReMSH” value was approximately 25 fold. Also, in assay [2], the Ki was determined as 2.9 nM.
